Patent US9969998B2, “Compositions of adenosine deaminase-2 (ADA2), variants thereof and methods of using same” (Halozyme, Inc., priority 2014, dated 2018)

Legend:
[1] = 24 hours, 37° C.
[2] = test system: CT26 murine colon cancer tumor; experiment: Tumor growth inhibition, CT26 syngeneic tumor model; type: in vivo, BALB/c mice
Method: Forty-four (44) male BALB/c mice were inoculated subcutaneously with 5×10^6 murine colon cancer tumor cells (CT26, ATCC CRL-2638) in 0.1 mL injection volume per animal. Tumor volume was determined using digital calipers by caliper measurement of the length (L) and width (W) of the solid tumor masses. Tumor volume (TV) was calculated as: (L×W^2)/2. Tumors were allowed to grow and tumor bearing mice were staged until when the tumors were palpable and measured to be about 50-100 mm^3.
PEGylated rHuADA2-K374D (K371D by mature numbering) was prepared as described in Example 8.A, with minor modifications to generate a preparation in which approximately 100% of the molecules were PEGylated as assessed by SDS-PAGE.
For treatment, animals were randomized into four groups (n=8/group). CT26 tumor bearing mice were then injected intravenously (IV) every other day, at 3 mg/kg body weight, 10 mg/kg body weight or 30 mg/kg body weight doses of PEG-K374D (PEG-K371D by mature numbering) or vehicle control (buffer only) every other day. Tumor volume was measured at day 0 and 8 using caliper measurement as described above. […] One mouse from the vehicle group was excluded due to significant tumor growth inhibition.

CT26 syngeneic tumors = experiment: Tumor growth inhibition of combination therapy with anti-PD-1 and anti-CTLA4, CT26 peritibial tumor model; type: in vivo, Balb/C mice; conditions: study day 10
Method: The murine CT26 syngeneic tumor model was used to compare the antitumor activity of combination therapy using PEGylated ADA2 with checkpoint inhibitors anti-PD-1 and anti-CTLA4 antibodies. CT26 syngeneic tumors were produced by injecting 2×10^5 CT26 cells in 0.05 mL injection volume per animal into the right peritibial muscle of male Balb/C mice. Tumor bearing mice were staged into treatment groups when the average tumor size reached 150 mm^3.
For treatment, animals were randomized into 8 groups (n=8/group) as follows: 1) saline vehicle control, 2) PEG-ADA2-K374D, 3) α-CTLA4 antibody (Clone 9D9, Cat. No. BE0164; BioXCell, West Lebanon, N.H., 4) α-PD-1 antibody (Clone RMP1-14, Cat. No. BE0146; BioXCell, West Lebanon, N.H.), 5) PEG-ADA2-K374D+α-CTLA4; 6) PEG-K374D+α-PD-1; 7) α-CTLA4+α-PD-1, or 8) Triple combo (PEG-ADA2-K374D+α-CTLA4+α-PD-1). PEG-ADA2-K374D was dosed intravenously 3× weekly at 10 mg/kg, α-CTLA4 was dosed intraperiotoneally biweekly at 4 mg/kg, and α-PD-1 was dosed intraperitoneally biweekly at 4 mg/kg. The sequence of dosing in the combination groups was as follows: PEG-ADA2-K374D followed by α-CTLA4 followed by α-PD-1.
Tumor volume was assessed twice weekly via ultrasound imaging using the Vevo2100 (Visual Sonics, Toronto, Canada) to determine tumor growth inhibition (TGI). Animals were anesthetized using light isoflurane anesthesia while the tumor volumes were measured. For tumor measurement, the region of interest was covered in ultrasound gel (Parker Laboratories, Fairfield, N.J.), and the RMV-716 (focal depth=17.5 mm) scan head was positioned directly over the region of interest. While in 2D-Mode, the approximate center of the tumor was located, and subsequently an image (˜150-200 frames) was captured using 3D-mode. Approximately 15-30 frames out of 150-200 frames were analyzed and a tumor volume calculated and expressed in mm^3. Tumor growth Inhibition (TGI) was calculated as described above.

[3] = In vivo pharmacokinetics of PEGylated rHuADA2 combination variants (Example 14); conditions: BALB/c mice, 3 mg/kg intravenous
From the text: Twenty-seven (27) male BALB/c mice were divided into three (3) dosing groups, and were further divided into three (3) groups each for sampling of blood at different time points. Thus, the mice were randomized into nine (9) groups total. Mice were weighed prior to the start of the study, and randomized into the 9 groups based upon their body weights. In each sampling group, three groups of (3) mice were used for dosing each test article to prevent oversampling of the blood from the animals. For measurement of baseline ADA2 levels, a blood sample was obtained from 12 randomly chosen mice and plasma was prepared using the anti-coagulant potassium (K3) ethylene diamine tetraacetic acid (K3-EDTA). All blood was collected by submandibular venipuncture.
PEGylated ADA2 variants were prepared using the PEGylation method as described in Example 8.A, with minor modifications. Briefly, all ADA2 variants at 10 mg/mL were PEGylated with linear PEG-20K (JenKem Technology, Plano, Tex.; Cat. No. M-SCM-20K) at 1:15 molar ratio and incubated first at 37° for 30 min, then at 4° C. for 16 hours.
Approximately 200 μL of whole blood was collected at designated sampling time points from appropriate groups of mice as indicated below in Table 38 and kept on ice until plasma preparation. The initial two (2) blood samples were collected by submandibular venipuncture. The final sample was collected from a terminal bleed. Plasma was prepared by centrifuging the blood (500×g for 5 min at 4° C.), transferring the plasma to a fresh tube and immediately freezing at −80° C. until the adenosine deaminase activity assay. Adenosine deaminase activity was determined as described in Example 4.
Non-compartmental analysis (NCA) was conducted using the Phoenix WinNonlin version 6.3 (Pharsight Corp, St. Louis, Mo. 63101). The half-life, or time taken for the activity of ADA2 proteins to be reduced by half, was calculated. Also, total exposure was measured by calculating the Area Under the Concentration-time Curve (AUC). The AUC and half-life values were obtained from the unweighted average from each test article group. The following options in the Phoenix WinNonlin program were used for data analysis: (i) linear trapezoidal/linear interpolation option for AUC; (ii) best-fit slope selection option for terminal slope; and (iii) uniform weighting of the data.

[4] = day 8; 3 mg/kg IV every other day
[5] = day 8; 10 mg/kg IV every other day
[6] = day 8; 30 mg/kg IV every other day
[7] = vs non-PEGylated WT rHuADA2 of Example 9

B1: ADA2: wild-type human adenosine deaminase 2, mature form SEQ ID NO:5, homodimer (protein, listed as Homo sapiens)
chain: IDETRAHLLLKEKMMRLGGRLVLNTKEELANERLMTLKIAEMKEAMRTLIFPPSMHFFQAKHLIERSQVFNILRMMPKGAALHLHDIGIVTMDWLVRNVTYRPHCHICFTPRGIMQFRFAHPTPRPSEKCSKWILLEDYRKRVQNVTEFDDSLLRNFTLVTQHPEVIYTNQNVVWSKFETIFFTISGLIHYAPVFRDYVFRSMQEFYEDNVLYMEIRARLLPVYELSGEHHDEEWSVKTYQEVAQKFVETHPEFIGIKIIYSDHRSKDVAVIAESIRMAMGLRIKFPTVVAGFDLVGHEDTGHSLHDYKEALMIPAKDGVKLPYFFHAGETDWQGTSIDRNILDALMLNTTRIGHGFALSKHPAVRTYSWKKDIPIEVCPISNQVLKLVSDLRNHPVATLMATGHPMVISSDDPAMFGAKGLSYDFYEVFMGIGGMKADLRTLKQLAMNSIKYSTLLESEKNTFMEIWKKRWDKFIADVATK
modifications: ADA2 mature protein
- activity retained in PBS/BSA control [1]: no change in activity
- activity retained after treatment with plasma ([1]; mouse plasma): about 65%

B2: PEG-K374D: rHuADA2-K374D (SEQ ID NO:20) PEGylated on surface exposed lysines with linear PEG-20K (conjugate)
chain: IDETRAHLLLKEKMMRLGGRLVLNTKEELANERLMTLKIAEMKEAMRTLIFPPSMHFFQAKHLIERSQVFNILRMMPKGAALHLHDIGIVTMDWLVRNVTYRPHCHICFTPRGIMQFRFAHPTPRPSEKCSKWILLEDYRKRVQNVTEFDDSLLRNFTLVTQHPEVIYTNQNVVWSKFETIFFTISGLIHYAPVFRDYVFRSMQEFYEDNVLYMEIRARLLPVYELSGEHHDEEWSVKTYQEVAQKFVETHPEFIGIKIIYSDHRSKDVAVIAESIRMAMGLRIKFPTVVAGFDLVGHEDTGHSLHDYKEALMIPAKDGVKLPYFFHAGETDWQGTSIDRNILDALMLNTTRIGHGFALSKHPAVRTYSWDKDIPIEVCPISNQVLKLVSDLRNHPVATLMATGHPMVISSDDPAMFGAKGLSYDFYEVFMGIGGMKADLRTLKQLAMNSIKYSTLLESEKNTFMEIWKKRWDKFIADVATK
modifications: linear PEG-20K on surface lysines; human ADA2 K371D, mature numbering
- Average Tumor Volume ([2]; 3 mg/kg IV every other day; day 8): 257.72 mm^3
- Tumor Growth Inhibition ([2]; 3 mg/kg IV every other day; day 8; vs vehicle): 50%
- Average Tumor Volume ([2]; 10 mg/kg IV every other day; day 8): 207.84 mm^3
- Tumor Growth Inhibition ([2]; 10 mg/kg IV every other day; day 8; vs vehicle): 63%
- Average Tumor Volume ([2]; 30 mg/kg IV every other day; day 8): 187.32 mm^3
- Tumor Growth Inhibition ([2]; 30 mg/kg IV every other day; day 8; vs vehicle): 68%
- Average Tumor Volume [2, 4]: 257.72 mm^3
- tumor growth inhibition (TGI) [2, 4]: 50%
- Average Tumor Volume [2, 5]: 207.84 mm^3
- tumor growth inhibition (TGI) [2, 5]: 63%
- Average Tumor Volume [2, 6]: 187.32 mm^3
- tumor growth inhibition (TGI) [2, 6]: 68%
- Average Group Tumor Volume, SD10 (CT26 syngeneic tumors; PEG-ADA2-K374D 10 mg/kg IV 3x weekly, α-CTLA4 4 mg/kg IP biweekly, α-PD-1 4 mg/kg IP biweekly, ultrasound): 1499.11 mm^3
- Tumor Growth Inhibition (CT26 syngeneic tumors; PEG-ADA2-K374D 10 mg/kg IV 3x weekly, α-CTLA4 4 mg/kg IP, α-PD-1 4 mg/kg IP biweekly): exhibited tumor growth inhibition activity
- TGI (CT26 syngeneic tumors; compared to vehicle control): 5%
- Volume Range (CT26 syngeneic tumors; range of tumor volume of all animals in the group): 1213-1594 mm^3
- AUC (total exposure) ([3]; plasma ADA activity): 4,662 (U * h)/mL
- Half-life slow (t1/2) ([3]; plasma ADA activity): 2,256 min
- Percent increase in AUC compared to WT ADA2 [3, 7]: 14,177%
- Percent increase in t1/2 compared to WT ADA2 [3, 7]: 3,269%
